Source: PMC4652764, “The La-related protein 1-specific domain repurposes HEAT-like repeats to directly bind a 5′TOP sequence”

Legend:
Conditions in all cases: protein: recombinant; tags: His6-MBP removed by TEV; glycine linker remnant; label: 5'-32P (EMSA, probing)
DM15 Y883A = DM15 Y883A (human, UniProt Q6PKG0 873-1023, Y960A); experiment: EMSA; up to 30 uM protein; EMSA: 20 mM Tris-HCl pH 8, 150 mM NaCl, 10% glycerol, 1 mM DTT, 0.5 ug tRNA, 1 ug BSA, <2 nM RNA, 30 min on ice, native 0.5x TBE gel at 4 C
DM15 R840E = DM15 R840E (human, UniProt Q6PKG0 873-1023, R917E); experiment: as above
DM15 GQ908-909AA = DM15 GQ908-909AA (human, UniProt Q6PKG0 873-1023, G985A;Q986A); experiment: EMSA; up to 150 uM; two-state shift like WT, more protein needed for maximum shift; EMSA: 20 mM Tris-HCl pH 8, 150 mM NaCl, 10% glycerol, 1 mM DTT, 0.5 ug tRNA, 1 ug BSA, <2 nM RNA, 30 min on ice, native 0.5x TBE gel at 4 C

CCUCUUUUCCGUGGCGCCUC (ssRNA) [RPS6-20mer]: no binding (DM15 Y883A); no binding (DM15 R840E); binds (DM15 GQ908-909AA).
